Test in all cases: SPR; Biacore T200; integrin (approx. 1000 RU) or TGFβRII (approx. 400 RU) amine-coupled to CM5 chip; galectin-3 2-fold serial dilutions injected (19.5-5000 nM integrins, 156.3-20000 nM TGFβRII), 30 μl/min, 20 °C, contact 120 s; HBS-P+ pH 7.4 ±1 mM MnCl2; steady-state fit, one-site specific binding; minimum number of binding sites = maximum response/Rmax
(Surface plasmon resonance follows binding to a sensor surface in real time, without labels.)

Assay [1] addresses recombinant human integrin αvβ1 (glycosylated) (human) (UniProt P06756).
In assay [2] the target is recombinant human integrin αvβ5 (glycosylated) (human) (UniProt P06756).
Assay [3] addresses recombinant human integrin αvβ6 (glycosylated) (human) (UniProt P06756).

Among the data in publication PMC11134550 are binding response relative to αvβ6 and stoichiometry N (individual galectin-3 proteins) values, retold here.

Consider “recombinant human galectin-3 (expressed and purified for SPR) (from UniProt P17931 1-250) (natural protein)”, for which the binding response relative to αvβ6 in assay [1] and in assay [2] was 2 fold throughout. Moreover, the stoichiometry N (individual galectin-3 proteins) is > 16 in assay [1], > 16 in assay [2] and > 8 in assay [3].
